Results as given in patent US20260201048A1 (NANJING BIOHENG BIOTECH, published 2026).

T1: Human IRP60 protein (Kactus) (human, UniProt Q9UGN4 18-178, limits assumed)
T1 construct: Commercial soluble protein used as the flow cytometry staining reagent; also called CD300a
T1 sequence (looked up): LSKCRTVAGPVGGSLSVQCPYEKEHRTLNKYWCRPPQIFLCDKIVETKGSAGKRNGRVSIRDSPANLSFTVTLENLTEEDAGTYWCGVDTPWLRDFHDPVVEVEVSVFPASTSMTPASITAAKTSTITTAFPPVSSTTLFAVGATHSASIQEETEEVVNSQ

B1: immunosuppressive molecule targeting SIRPa (anti-SIRPa scFv, IgG4 hinge region, CD28 transmembrane region, CD28 co-stimulatory domain), expressed on CAR19-α T … (scFv)
chain: EVQLVESGGGLVQPGGSLRLSCAASGFNISYYFIHWVRQAPGKGLEWVASVYSSFGYTYYADSVKGRFTISADTSKNTAYLQMNSLRAEDTAVYYCARFTFPGLFTGFFGAYLGSLDYWGQGTLVTVSSGGGSGGGSGGGSDIQMTQSPSSLSASVGDRVTITCRASQSVSSAVAWYQQKPGKAPKLLIYSASSLYSGVPSRFSGSRSGTDFTLTISSLQPEDFATYYCQQAVNWVGALVTFGQGTKVEIKRESKYGPPCPPCPFWVLVVVGGVLACYSLLVTVAFIIFWVRSKRSRLLHSDYMNMTPRRPGPTRKHYQPYAPPRDFAAYRS
notes: Membrane-anchored scFv on B2M-knockout T cells that also express a CD19 CAR; also called anti-SIRPa antibody
B2: immunosuppressive molecule targeting IRP60 (anti-IRP60 scFv, IgG4 hinge region, CD28 transmembrane region, CD28 co-stimulatory domain), expressed on CAR19-60 T … (scFv)
chain: EVQLQQSGAELVKPGASVKLSCKASGYTFTSYWMQWVKQRPGQGLEWIGEIDPSDSYTNYNQKFKGKATLTVDTSSSTTYMQLSSLTSEDSAVYYCARWGMAYGTSSYWYFDVWGTGTTVTVSSAGGGSGGGSGGGSDIQMTQTTSSLSASLGDRVTISCRASQDISNYLNWYQQKPDGTVKLLIYYTSRLHSGVPSRFSGSGSGTDYSLTISNLEQEDIATYFCQQGNTLPWTFGGGTKLEIKESKYGPPCPPCPFWVLVVVGGVLACYSLLVTVAFIIFWVRSKRSRLLHSDYMNMTPRRPGPTRKHYQPYAPPRDFAAYRS
notes: Membrane-anchored scFv on B2M-knockout T cells that also express a CD19 CAR; also called anti-IRP60 antibody

Key:
[1] = target: T2, Human SIRPa protein (Acro) (human, UniProt P78324 31-370, limits assumed); assay: flow cytometry; CAR19-α T cells stained with soluble human SIRPa protein
T2 construct: Commercial soluble protein used as the flow cytometry staining reagent; also called SIRPα; signal regulatory protein a
Source text: Using a flow cytometry, the expression of anti-CD19 scFv in CAR-T cells was detected with FITC goat anti-human Fab (Thermo Fisher), and the expression of anti-SIRPa scFv was detected with Human SIRPa protein (Acro). It can be seen that all the CARs in the CAR-T cells prepared in this example can be effectively expressed (FIG. 7), and the immunosuppressive molecule in CAR19-α T cells can also be effectively expressed (FIG. 8).

[2] = target: T1, Human IRP60 protein (Kactus); assay: flow cytometry; CAR19-60 T cells stained with soluble human IRP60 protein
Source text: Using a flow cytometry, the expression of anti-CD 19 scFv in CAR-T cells was detected with FITC goat anti-human Fab (Thermo Fisher), and the expression of anti-IRP60 scFv was detected with Human IRP60 protein (Kactus). It can be seen that all the CARs in the CAR-T cells prepared in this example can be effectively expressed (FIG. 12), and the immunosuppressive molecule in CAR19-60 T cells can also be effectively expressed (FIG. 13).

T2 sequence (P78324 31-370 limits assumed): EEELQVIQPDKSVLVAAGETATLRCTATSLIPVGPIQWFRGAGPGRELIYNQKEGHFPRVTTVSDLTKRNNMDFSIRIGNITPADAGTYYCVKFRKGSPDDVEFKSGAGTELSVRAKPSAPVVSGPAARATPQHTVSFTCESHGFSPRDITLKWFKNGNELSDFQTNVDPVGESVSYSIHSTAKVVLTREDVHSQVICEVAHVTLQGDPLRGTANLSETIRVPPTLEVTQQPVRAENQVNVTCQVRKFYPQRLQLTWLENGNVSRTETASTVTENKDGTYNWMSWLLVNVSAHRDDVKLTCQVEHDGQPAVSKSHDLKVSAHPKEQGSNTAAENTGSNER

Binder | binding result [1] | binding result [2]
B1 | binds | –
B2 | – | binds
